Test results as given in PMC2845462.

Target: FLAG-HA-Twi1p-WT (Tetrahymena thermophila) (UniProt Q8MXZ9)
Test: co-IP

## Giw1p (natural protein)
  amount co-precipitated after 100 μg/mL RNase A, against the untreated lysate: 60%
